Laboratory results reported in article PMC4039629.

How the values were obtained:
[1] = biological target: GST-MYC(1-263) (human); experiment: pull-down + cross-linking
[2] = biological target: GST-MYC(2-108) E100A (human); experiment: pull-down
[3] = biological target: GST-MYC 1-98 (human); experiment: pull-down
[4] = biological target: GST-MYC(2-108) E[54,100]A (human); experiment: pull-down
[5] = biological target: GST-MYC(2-108) E54A (human); experiment: pull-down

| percent of the protein in the extract crosslinked [1] | percent reduction of GCN5 binding against wt GST-MYC(2-108) [2] | percent reduction of GCN5 binding on deletion of residues 99-108 [3] | percent reduction of GCN5 binding against wt GST-MYC(2-108) [4] | percent reduction of GCN5 binding against wt GST-MYC(2-108) [5] | Substance |
| --- | --- | --- | --- | --- | --- |
| 1% | – | – | – | – | GCN5 acetyltransferase, endogenous in HeLa cells (from UniProt Q92830 1-837) (enzyme) |
| – | 20% | 90% | 50% | 40% | purified recombinant human GCN5-S (pRSETA-His6-GCN5-S) (enzyme) |
| 1% | – | – | – | – | transcription/transformation-associated protein (TRRAP), endogenous in HeLa cells (from UniProt Q9Y4A5 1-3859) (natural protein) |
